Measured values taken from US20230159655A1 (AKESO BIOPHARMA, published 2023).

Columns and labels:
[1] = target: T1, human NT5E-Biotin (NT5E, GenbankID: NP_002517.1, position: 1-552) (human, UniProt P21589 27-552, biotin (site not stated)); assay: ELISA on SA-captured NT5E-Biotin; antibody 0.333 ug/mL; replicate 2
T1 construct: range 1-552; Biotinylated antigen captured on streptavidin-coated plates; also called HNT5E-Biotin; human NTSE-Biotin
T1 sequence (looked up): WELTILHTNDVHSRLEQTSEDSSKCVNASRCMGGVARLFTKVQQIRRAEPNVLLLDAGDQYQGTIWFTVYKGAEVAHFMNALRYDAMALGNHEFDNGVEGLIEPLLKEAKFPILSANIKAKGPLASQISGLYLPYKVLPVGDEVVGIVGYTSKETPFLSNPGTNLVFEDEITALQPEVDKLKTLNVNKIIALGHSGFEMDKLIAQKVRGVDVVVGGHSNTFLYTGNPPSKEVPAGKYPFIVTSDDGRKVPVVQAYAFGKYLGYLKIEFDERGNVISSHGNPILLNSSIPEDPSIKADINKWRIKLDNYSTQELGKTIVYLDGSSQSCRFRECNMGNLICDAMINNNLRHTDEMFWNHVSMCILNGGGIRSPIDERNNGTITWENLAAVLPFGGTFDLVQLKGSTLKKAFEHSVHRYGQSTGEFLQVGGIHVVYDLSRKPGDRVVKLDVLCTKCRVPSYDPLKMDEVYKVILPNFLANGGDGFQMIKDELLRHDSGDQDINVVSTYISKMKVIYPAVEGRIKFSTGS
Method: (§1) Experimental steps: a microplate was coated with streptavidin at 2 μg/mL, and then the microplate was incubated at 4° C. for 12 hours. The antigen-coated microplate was rinsed for once with PBST after incubation, and then blocked with a PBST solution containing 1% BSA as a microplate blocking solution for 2 hours. After blocking, the microplate was washed 3 times with PBST. […] The antibody serially diluted with the PBST solution was added to the wells of the microplate. The microplate containing the test antibodies was incubated at 37° C. for 30 minutes, and then washed 3 times with PBST. After the plate was washed, the secondary antibody working solution of HRP-labeled goat anti-human IgG (H+L) (Jackson, Cat. No. 109-035-088) diluted in a ratio of 1:5000 or HRP-labeled goat anti-mouse IgG (H+L) (Jackson, Cat. No. 115-035-062) diluted in a ratio of 1:5000 was added, and then the plate was incubated at 37° C. for 30 minutes. After incubation, the plate was washed 4 times with PBST, TMB (Neogen, 308177) was added in the dark for color development for 5 min, and then a stop solution was added to terminate chromogenic reaction. The microplate was put into a microplate reader immediately, and the OD value of each well in the microplate was read at the light wavelength of 450 nm. The data were analyzed by SoftMax Pro 6.2.1.

[2] = target: T1, human NT5E-Biotin (NT5E, GenbankID: …); assay: ELISA on SA-captured NT5E-Biotin; antibody 0.333 ug/mL diluted 1:9; replicate 1
Method: as §1

[3] = target: T1, human NT5E-Biotin (NT5E, GenbankID: …); assay: ELISA on SA-captured NT5E-Biotin; antibody 0.333 ug/mL diluted 1:729; replicate 1
Method: as §1

[4] = target: T1, human NT5E-Biotin (NT5E, GenbankID: …); assay: ELISA on SA-captured NT5E-Biotin; antibody 0.333 ug/mL diluted 1:3; replicate 1
Method: as §1

[5] = target: T1, human NT5E-Biotin (NT5E, GenbankID: …); assay: ELISA on SA-captured NT5E-Biotin; antibody 0.333 ug/mL diluted 1:27; replicate 2
Method: as §1

[6] = target: T1, human NT5E-Biotin (NT5E, GenbankID: …); assay: ELISA on SA-captured NT5E-Biotin; antibody 0 (blank); replicate 1
Method: as §1

[7] = target: T1, human NT5E-Biotin (NT5E, GenbankID: …); assay: ELISA on SA-captured NT5E-Biotin; antibody 0.333 ug/mL; replicate 1
Method: as §1

[8] = target: T1, human NT5E-Biotin (NT5E, GenbankID: …); assay: ELISA on SA-captured NT5E-Biotin; antibody 0.333 ug/mL diluted 1:81; replicate 1
Method: as §1

[9] = target: T1, human NT5E-Biotin (NT5E, GenbankID: …); assay: ELISA on SA-captured NT5E-Biotin; antibody 0.333 ug/mL diluted 1:729; replicate 2
Method: as §1

[10] = target: T1, human NT5E-Biotin (NT5E, GenbankID: …); assay: ELISA on SA-captured NT5E-Biotin; antibody 0.333 ug/mL diluted 1:243; replicate 1
Method: as §1

[11] = target: T1, human NT5E-Biotin (NT5E, GenbankID: …); assay: ELISA on SA-captured NT5E-Biotin; antibody 0 (blank); replicate 2
Method: as §1

[12] = target: T1, human NT5E-Biotin (NT5E, GenbankID: …); assay: ELISA on SA-captured NT5E-Biotin; antibody 0.333 ug/mL diluted 1:3; replicate 2
Method: as §1

[13] = target: T1, human NT5E-Biotin (NT5E, GenbankID: …); assay: ELISA on SA-captured NT5E-Biotin; antibody 0.333 ug/mL diluted 1:243; replicate 2
Method: as §1

[14] = target: T1, human NT5E-Biotin (NT5E, GenbankID: …); assay: ELISA on SA-captured NT5E-Biotin; antibody 0.333 ug/mL diluted 1:81; replicate 2
Method: as §1

B1: murine anti-CD73 monoclonal antibody 19F3 (antibody, V domains shown)
VH: EVQLQQSGPELVKPGASMRMSCKASGYSFTGYTMNWVKQSHGKNLEWIGLINPYNAGTSYNQKFKGKATLTVDKSSSTAYMELLSLTSEDSAVYYCARSEYRYGGDYFDYWGQGTTLTVSS
VL: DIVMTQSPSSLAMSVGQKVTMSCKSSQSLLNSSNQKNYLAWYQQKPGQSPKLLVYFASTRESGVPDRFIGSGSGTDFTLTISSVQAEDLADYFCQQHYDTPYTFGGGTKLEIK
notes: Mouse hybridoma antibody purified on protein A; also called murine antibody 19F3; antibody secreted by hybridoma cell line LT014 (CD73-19F3)
[1]
  OD 450 nm: 2.74 OD450
[2]
  OD 450 nm: 2.57 OD450
[3]
  OD 450 nm: 0.446 OD450
[4]
  OD 450 nm: 2.74 OD450
[5]
  OD 450 nm: 2.36 OD450
[6]
  OD 450 nm: 0.06 OD450
[7]
  OD 450 nm: 2.71 OD450
[8]
  OD 450 nm: 1.69 OD450
[9]
  OD 450 nm: 0.47 OD450
[10]
  OD 450 nm: 1 OD450
[11]
  OD 450 nm: 0.062 OD450
[12]
  OD 450 nm: 2.76 OD450
[13]
  OD 450 nm: 1 OD450
[14]
  OD 450 nm: 1.77 OD450
